Assay results as given in article PMC5497066, “GroEL actively stimulates folding of the endogenous substrate protein PepQ” (Nature Communications, 2017).
Residue numbers refer to the chain shown, from its start. Names and notes keep the numbering of the source.

What was measured:
[1] = biological target: single-ring truncation mutant, SRΔ526 (E. coli); assay: cell-based or functional assay
[2] = biological target: T1, wild-type GroEL tetradecamer (E. coli, UniProt P0A6F5 1-548); assay: cryo-EM structure; acid-urea denatured PepQ (7 μM final) titrated into GroEL or Δ526 (8 μM tetradecamers) in TKM buffer, no nucleotide, room temperature 5 min; asymmetric 3D classification and refinement; details: both partners purified
T1 construct: GroEL (Hsp60 chaperonin), E. coli, homo-oligomer of 14 subunits of 57 kDa in two seven-membered rings; also called WT; full-length GroEL; source: E. coli BL21, purified (anion exchange, ammonium sulfate precipitation, Affi Blue Gel); copies: 14

[3] = biological target: T1, wild-type GroEL tetradecamer; assay: fluorescence correlation spectroscopy; acid-urea denatured PepQ-24TMR (2 nM) with GroEL (1 μM) in TKM buffer (50 mM Tris-HCl, pH 7.4, 50 mM KOAc, 10 mM Mg(OAc)2, 2 mM DTT); shift in diffusion time; details: both partners purified
[4] = biological target: T2, asymmetric wild-type GroEL-GroES-ADP complex (E. coli, UniProt P0A6F5 1-548; P0A6F9 1-97); assay: protease protection (encapsulation); denatured PepQ-24F (100 nM) bound to wild-type or Δ526 GroEL-GroES-ADP bullets (200 nM) or full-length or Δ526 single-ring GroEL (300 nM) with GroES (600 nM); single turnover with ATP (2 mM), quenched after 10 s; unencapsulated PepQ digested with Proteinase K; SDS-PAGE, fluorescein scan; details: both partners purified
T2 construct: GroEL, E. coli, wild type; GroES, ring-shaped co-chaperonin, E. coli; GroES caps one ring; also called GroEL-GroES-ADP bullets; source: GroEL from E. coli BL21 and GroES from E. coli BL21(DE3), each purified; complex formed beforehand with ADP; copies: 14 +

B1: wild type E. coli PepQ (enzyme, UniProt P21165 1-443, looked up)
chain: MESLASLYKNHIATLQERTRDALARFKLDALLIHSGELFNVFLDDHPYPFKVNPQFKAWVPVTQVPNCWLLVDGVNKPKLWFYLPVDYWHNVEPLPTSFWTEDVEVIALPKADGIGSLLPAARGNIGYIGPVPERALQLGIEASNINPKGVIDYLHYYRSFKTEYELACMREAQKMAVNGHRAAEEAFRSGMSEFDINIAYLTATGHRDTDVPYSNIVALNEHAAVLHYTKLDHQAPEEMRSFLLDAGAEYNGYAADLTRTWSAKSDNDYAQLVKDVNDEQLALIATMKAGVSYVDYHIQFHQRIAKLLRKHQIITDMSEEAMVENDLTGPFMPHGIGHPLGLQVHDVAGFMQDDSGTHLAAPAKYPYLRCTRILQPGMVLTIEPGIYFIESLLAPWREGQFSKHFNWQKIEALKPFGGIRIEDNVVIHENNVENMTRDLKLA
notes: PepQ (Xaa-Pro dipeptidase, prolidase), E. coli, monomer of about 50 kDa; native form is a homodimer; also called prolidase; metalloprotease PepQ; source: E. coli BL21(DE3), purified (anion exchange, ammonium sulfate, Phenyl Sepharose)
- observed folding rate constant of PepQ by recovery of enzymatic activity, bound to SRΔ526 (300 nM) and refolded with GroES (600 nM) and ATP (2 mM) [1]: 0.332 min⁻¹
- binding result [2]: binds

B2: PepQ-24TMR (enzyme, E. coli, UniProt P21165 1-443, looked up)
chain: B1 chain with A24C
modifications: tetramethylrhodamine (tetramethylrhodamine-5-iodoacetamide) on the cysteine at position 24
notes: PepQ, E. coli, with the surface-exposed cysteine A24C in the first helix of the N-terminal domain; also called PepQ-TMR; A24C PepQ labelled with tetramethylrhodamine; source: E. coli BL21(DE3), purified, labelled and re-purified (PD-10, MonoQ)
- binding result [3]: binds

B3: PepQ-24F (enzyme, E. coli, UniProt P21165 1-443, looked up)
chain: B1 chain with A24C
modifications: fluorescein (5-iodoacetamidofluorescein) on the cysteine at position 24
notes: PepQ, E. coli, with the surface-exposed cysteine A24C; also called Fluorescein-labelled PepQ; A24C PepQ labelled with fluorescein; source: E. coli BL21(DE3), purified, labelled and re-purified (PD-10, MonoQ)
- binding result [4]: binds
